In patent US20190055527A1 (KYUSHU UNIVERSITY NATIONAL UNIVERSITY, published 2019):

Tests used:
Assay in all cases: SPR (BIAcore J), PfuPCNA immobilised on CM5 chip, polymerase variant as analyte, 25° C.
Taq82 (PIP-L10-Taq) = molecular target: T1, Taq82 (PIP-L10-Taq) (Thermus aquaticus, UniProt P19821 1-832)
T1 construct: N-terminal PfuRFCL PIP box, 10-residue Ser/Gly linker, Taq DNA polymerase; also called DNA polymerase variant Taq82
Procedure: (§1) In the surface plasmon resonance (SPR) analysis, BIAcore J (manufactured by BIACORE) was used. A PCNA from Pyrococcus furiosus (J. Bacteriology, 181, 6591-6599, 1999: hereinafter referred to as PfuPCNA) was immobilized on a CM5 sensor chip (manufactured by GE Healthcare) by amine coupling, and the measurement was carried out under the conditions of 25° C., a flow rate of 30 μL/minutes, and a solution E (10 mM Tris-HCl, 50 mM KCl, 1.5 mM MgCl₂, pH 8.3). A sample solution of Taq81 to Taq85 diluted to 10, 20, 40, 80, 160, or 320 nM or a sample solution of Taq94 diluted to 125 nM, 250 nM, 500 nM, 1 μM, or 2 μM was each added for 2 minutes. The sensorgrams obtained were analyzed by BIA evaluation program, and the dissociation constants (Kd) between Taq81 to Taq85 and PfuPCNA and between Taq94 and PfuPCNA were calculated.
(§2) The dissociation constants (Kd) with respect to the bindings between five kinds of Taq DNA polymerases to which PIP box was added at an N-terminal, each having a different length of a linker peptide (Taq81, Taq82, Taq83, Taq84, and Taq85), and PfuPCNA were calculated. As a result, the values were 7.1×10⁻⁷ M, 4.4×10⁻⁷ M, 2.4×10⁻⁷ M, 2.5×10⁻⁷ M, and 2.0×10⁻⁷ M, which were nearly of the same level regardless of the lengths of the linker peptides.

Taq83 (PIP-L15-Taq) = molecular target: T2, Taq83 (PIP-L15-Taq) (Thermus aquaticus, UniProt P19821 1-832)
T2 construct: N-terminal PfuRFCL PIP box, 15-residue Ser/Gly linker, Taq DNA polymerase; also called DNA polymerase variant Taq83
T2 sequence (P19821 other isoform, or with tags, fused parts or gaps): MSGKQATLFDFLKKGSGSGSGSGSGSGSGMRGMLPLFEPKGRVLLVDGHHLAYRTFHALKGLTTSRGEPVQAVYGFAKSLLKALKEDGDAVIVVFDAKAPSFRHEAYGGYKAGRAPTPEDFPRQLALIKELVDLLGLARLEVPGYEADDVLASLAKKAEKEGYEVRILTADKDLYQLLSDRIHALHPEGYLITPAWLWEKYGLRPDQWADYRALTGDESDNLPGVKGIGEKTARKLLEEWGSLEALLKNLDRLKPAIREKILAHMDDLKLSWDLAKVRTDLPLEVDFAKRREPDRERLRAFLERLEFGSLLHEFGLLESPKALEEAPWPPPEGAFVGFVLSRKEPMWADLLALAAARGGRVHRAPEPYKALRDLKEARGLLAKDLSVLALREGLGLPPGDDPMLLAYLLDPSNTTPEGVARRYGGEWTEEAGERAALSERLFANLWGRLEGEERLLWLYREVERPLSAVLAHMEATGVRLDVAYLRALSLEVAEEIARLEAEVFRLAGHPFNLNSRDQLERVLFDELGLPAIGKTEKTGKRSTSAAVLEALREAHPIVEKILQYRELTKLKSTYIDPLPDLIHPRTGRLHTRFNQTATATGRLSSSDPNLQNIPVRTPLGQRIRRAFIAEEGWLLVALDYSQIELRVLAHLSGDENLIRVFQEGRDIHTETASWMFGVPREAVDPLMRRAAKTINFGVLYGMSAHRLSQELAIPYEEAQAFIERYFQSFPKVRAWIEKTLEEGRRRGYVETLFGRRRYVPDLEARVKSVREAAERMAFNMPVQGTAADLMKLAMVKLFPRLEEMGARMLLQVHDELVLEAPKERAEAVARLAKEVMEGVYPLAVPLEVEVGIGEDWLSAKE
Procedure: as §1, §2

Taq84 (PIP-L35-Taq) = molecular target: T3, Taq84 (PIP-L35-Taq) (Thermus aquaticus, UniProt P19821 1-832)
T3 construct: N-terminal PfuRFCL PIP box, 35-residue Ser/Gly linker, Taq DNA polymerase; also called DNA polymerase variant Taq84
T3 sequence (P19821 other isoform, or with tags, fused parts or gaps): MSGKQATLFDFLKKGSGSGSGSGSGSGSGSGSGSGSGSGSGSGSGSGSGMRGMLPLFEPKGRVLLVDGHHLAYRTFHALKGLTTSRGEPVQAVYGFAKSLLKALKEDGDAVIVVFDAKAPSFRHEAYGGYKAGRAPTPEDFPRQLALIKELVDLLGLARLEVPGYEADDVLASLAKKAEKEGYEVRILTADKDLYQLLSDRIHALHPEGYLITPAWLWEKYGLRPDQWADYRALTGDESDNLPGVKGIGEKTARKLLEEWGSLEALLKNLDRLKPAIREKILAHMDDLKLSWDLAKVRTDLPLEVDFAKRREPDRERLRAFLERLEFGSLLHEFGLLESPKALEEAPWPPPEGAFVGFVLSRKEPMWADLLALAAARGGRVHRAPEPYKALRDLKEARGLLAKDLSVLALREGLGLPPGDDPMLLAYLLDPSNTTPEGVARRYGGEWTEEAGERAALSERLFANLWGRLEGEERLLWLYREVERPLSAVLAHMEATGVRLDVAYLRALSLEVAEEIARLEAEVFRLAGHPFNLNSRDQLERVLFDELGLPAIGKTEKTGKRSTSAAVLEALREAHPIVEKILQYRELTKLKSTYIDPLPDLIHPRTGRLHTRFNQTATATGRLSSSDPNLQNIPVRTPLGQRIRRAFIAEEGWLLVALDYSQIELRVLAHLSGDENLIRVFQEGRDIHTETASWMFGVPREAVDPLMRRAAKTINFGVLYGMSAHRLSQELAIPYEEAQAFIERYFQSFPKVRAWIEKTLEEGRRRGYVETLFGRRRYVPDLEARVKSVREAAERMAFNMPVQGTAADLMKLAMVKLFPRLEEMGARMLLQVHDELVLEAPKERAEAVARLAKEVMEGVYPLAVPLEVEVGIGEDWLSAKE
Procedure: as §1, §2

Taq81 (PIP-L5-Taq) = molecular target: T4, Taq81 (PIP-L5-Taq) (Thermus aquaticus, UniProt P19821 1-832)
T4 construct: expressed in E. coli and purified; also called DNA polymerase variant Taq81
T4 sequence (P19821 other isoform, or with tags, fused parts or gaps): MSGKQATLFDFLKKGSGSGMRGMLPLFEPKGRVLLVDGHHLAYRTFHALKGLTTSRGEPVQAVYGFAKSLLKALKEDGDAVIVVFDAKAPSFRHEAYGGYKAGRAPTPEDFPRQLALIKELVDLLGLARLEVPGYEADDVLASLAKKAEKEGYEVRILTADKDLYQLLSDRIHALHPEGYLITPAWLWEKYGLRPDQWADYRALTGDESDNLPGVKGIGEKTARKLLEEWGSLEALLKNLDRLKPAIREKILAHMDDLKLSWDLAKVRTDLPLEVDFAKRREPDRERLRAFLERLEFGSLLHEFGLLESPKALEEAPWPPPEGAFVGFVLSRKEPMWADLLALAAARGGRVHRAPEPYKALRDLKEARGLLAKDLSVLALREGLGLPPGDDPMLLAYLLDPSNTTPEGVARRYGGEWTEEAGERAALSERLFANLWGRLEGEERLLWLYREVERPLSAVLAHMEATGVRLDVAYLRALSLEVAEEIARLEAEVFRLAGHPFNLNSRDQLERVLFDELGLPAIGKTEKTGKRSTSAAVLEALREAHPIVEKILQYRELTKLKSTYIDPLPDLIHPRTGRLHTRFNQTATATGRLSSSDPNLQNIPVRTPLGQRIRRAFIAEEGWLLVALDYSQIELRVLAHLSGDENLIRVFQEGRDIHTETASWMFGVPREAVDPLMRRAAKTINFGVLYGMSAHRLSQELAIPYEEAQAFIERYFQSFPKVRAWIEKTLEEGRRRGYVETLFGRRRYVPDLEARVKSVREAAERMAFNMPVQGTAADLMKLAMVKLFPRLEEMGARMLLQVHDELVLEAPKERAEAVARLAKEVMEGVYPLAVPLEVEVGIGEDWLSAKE
Procedure: as §1, §2

Taq94 (Taq-L15-PIP) = molecular target: T5, Taq94 (Taq-L15-PIP) (Thermus aquaticus, UniProt P19821 1-832)
T5 construct: Taq DNA polymerase, 15-residue Ser/Gly linker, PfuRFCL PIP box at the C-terminus; also called DNA polymerase variant Taq94
T5 sequence (P19821 other isoform, or with tags, fused parts or gaps): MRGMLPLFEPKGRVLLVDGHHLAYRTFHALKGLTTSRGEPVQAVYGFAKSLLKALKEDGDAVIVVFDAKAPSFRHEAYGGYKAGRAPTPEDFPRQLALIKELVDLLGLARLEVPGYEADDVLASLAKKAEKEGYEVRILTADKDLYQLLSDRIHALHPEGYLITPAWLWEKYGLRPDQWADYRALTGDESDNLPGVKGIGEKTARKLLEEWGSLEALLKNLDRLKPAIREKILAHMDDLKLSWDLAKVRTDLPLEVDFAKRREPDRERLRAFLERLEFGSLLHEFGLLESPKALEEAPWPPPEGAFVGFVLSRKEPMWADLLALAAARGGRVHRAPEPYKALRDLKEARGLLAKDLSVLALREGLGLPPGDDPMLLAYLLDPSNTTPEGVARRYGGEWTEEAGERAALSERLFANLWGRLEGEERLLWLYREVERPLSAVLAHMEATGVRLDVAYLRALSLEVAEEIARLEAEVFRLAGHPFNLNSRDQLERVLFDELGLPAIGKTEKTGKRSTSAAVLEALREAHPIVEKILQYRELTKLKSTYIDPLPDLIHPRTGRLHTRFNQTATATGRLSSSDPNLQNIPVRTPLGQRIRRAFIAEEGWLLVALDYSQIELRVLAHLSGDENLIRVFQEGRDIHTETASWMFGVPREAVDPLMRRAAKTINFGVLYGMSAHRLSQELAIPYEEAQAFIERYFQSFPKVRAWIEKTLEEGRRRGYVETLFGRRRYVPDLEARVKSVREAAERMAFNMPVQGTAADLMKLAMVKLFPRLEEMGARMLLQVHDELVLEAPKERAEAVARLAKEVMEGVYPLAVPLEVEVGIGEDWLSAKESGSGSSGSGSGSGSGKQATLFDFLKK
Procedure: as §1, §2

Taq85 (PIP-L47-Taq) = molecular target: T6, Taq85 (PIP-L47-Taq) (Thermus aquaticus, UniProt P19821 1-832)
T6 construct: N-terminal PfuRFCL PIP box, 47-residue Ser/Gly linker, Taq DNA polymerase; also called DNA polymerase variant Taq85
T6 sequence (P19821 other isoform, or with tags, fused parts or gaps): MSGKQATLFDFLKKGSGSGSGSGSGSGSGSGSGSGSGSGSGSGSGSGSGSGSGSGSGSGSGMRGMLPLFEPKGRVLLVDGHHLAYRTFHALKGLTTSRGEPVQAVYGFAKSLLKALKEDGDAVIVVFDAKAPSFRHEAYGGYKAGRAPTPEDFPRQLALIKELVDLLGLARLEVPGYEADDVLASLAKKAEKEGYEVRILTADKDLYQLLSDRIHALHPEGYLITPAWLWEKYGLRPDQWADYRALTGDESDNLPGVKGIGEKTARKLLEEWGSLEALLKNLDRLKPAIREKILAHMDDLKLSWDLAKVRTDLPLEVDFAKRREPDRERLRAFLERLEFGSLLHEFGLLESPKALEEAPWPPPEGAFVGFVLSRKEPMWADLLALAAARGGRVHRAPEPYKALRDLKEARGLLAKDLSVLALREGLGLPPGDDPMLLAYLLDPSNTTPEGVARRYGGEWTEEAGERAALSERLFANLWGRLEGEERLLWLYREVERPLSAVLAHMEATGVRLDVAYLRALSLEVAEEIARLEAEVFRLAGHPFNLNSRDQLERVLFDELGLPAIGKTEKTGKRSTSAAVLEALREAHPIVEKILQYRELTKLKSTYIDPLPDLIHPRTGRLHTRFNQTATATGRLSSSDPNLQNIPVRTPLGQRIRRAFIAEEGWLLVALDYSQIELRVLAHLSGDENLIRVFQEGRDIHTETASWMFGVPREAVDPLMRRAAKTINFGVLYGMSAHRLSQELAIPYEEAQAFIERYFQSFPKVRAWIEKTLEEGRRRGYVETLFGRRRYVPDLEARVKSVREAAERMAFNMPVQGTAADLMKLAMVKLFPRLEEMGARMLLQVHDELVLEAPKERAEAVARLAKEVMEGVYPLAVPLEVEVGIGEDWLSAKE
Procedure: as §1, §2

B1: PCNA from Pyrococcus furiosus (other, UniProt O73947 1-249, looked up)
chain: MPFEIVFEGAKEFAQLIDTASKLIDEAAFKVTEDGISMRAMDPSRVVLIDLNLPSSIFSKYEVVEPETIGVNMDHLKKILKRGKAKDTLILKKGEENFLEITIQGTATRTFRVPLIDVEEMEVDLPELPFTAKVVVLGEVLKDAVKDASLVSDSIKFIARENEFIMKAEGETQEVEIKLTLEDEGLLDIEVQEETKSAYGVSYLSDMVKGLGKADEVTIKFGNEMPMQMEYYIRDEGRLTFLLAPRVEE
notes: Wild-type PfuPCNA immobilised on a CM5 chip by amine coupling; also called PfuPCNA
In the case of B1, the Kd (Taq82 (PIP-L10-Taq)) is reported as 440 nM, the Kd (Taq83 (PIP-L15-Taq)) is reported as 240 nM and the Kd (Taq84 (PIP-L35-Taq)) is reported as 250 nM. The Kd (Taq81 (PIP-L5-Taq)) was 710 nM, the Kd (Taq94 (Taq-L15-PIP)) was 2500 nM and the Kd (Taq85 (PIP-L47-Taq)) was 200 nM.
